Assay results: patent US20060100138

Legend:
[1] = system: Synthetic human type I collagen
[2] = system: Synthetic human type III collagen
Sequence of Synthetic human type III collagen (chain, as listed by the source): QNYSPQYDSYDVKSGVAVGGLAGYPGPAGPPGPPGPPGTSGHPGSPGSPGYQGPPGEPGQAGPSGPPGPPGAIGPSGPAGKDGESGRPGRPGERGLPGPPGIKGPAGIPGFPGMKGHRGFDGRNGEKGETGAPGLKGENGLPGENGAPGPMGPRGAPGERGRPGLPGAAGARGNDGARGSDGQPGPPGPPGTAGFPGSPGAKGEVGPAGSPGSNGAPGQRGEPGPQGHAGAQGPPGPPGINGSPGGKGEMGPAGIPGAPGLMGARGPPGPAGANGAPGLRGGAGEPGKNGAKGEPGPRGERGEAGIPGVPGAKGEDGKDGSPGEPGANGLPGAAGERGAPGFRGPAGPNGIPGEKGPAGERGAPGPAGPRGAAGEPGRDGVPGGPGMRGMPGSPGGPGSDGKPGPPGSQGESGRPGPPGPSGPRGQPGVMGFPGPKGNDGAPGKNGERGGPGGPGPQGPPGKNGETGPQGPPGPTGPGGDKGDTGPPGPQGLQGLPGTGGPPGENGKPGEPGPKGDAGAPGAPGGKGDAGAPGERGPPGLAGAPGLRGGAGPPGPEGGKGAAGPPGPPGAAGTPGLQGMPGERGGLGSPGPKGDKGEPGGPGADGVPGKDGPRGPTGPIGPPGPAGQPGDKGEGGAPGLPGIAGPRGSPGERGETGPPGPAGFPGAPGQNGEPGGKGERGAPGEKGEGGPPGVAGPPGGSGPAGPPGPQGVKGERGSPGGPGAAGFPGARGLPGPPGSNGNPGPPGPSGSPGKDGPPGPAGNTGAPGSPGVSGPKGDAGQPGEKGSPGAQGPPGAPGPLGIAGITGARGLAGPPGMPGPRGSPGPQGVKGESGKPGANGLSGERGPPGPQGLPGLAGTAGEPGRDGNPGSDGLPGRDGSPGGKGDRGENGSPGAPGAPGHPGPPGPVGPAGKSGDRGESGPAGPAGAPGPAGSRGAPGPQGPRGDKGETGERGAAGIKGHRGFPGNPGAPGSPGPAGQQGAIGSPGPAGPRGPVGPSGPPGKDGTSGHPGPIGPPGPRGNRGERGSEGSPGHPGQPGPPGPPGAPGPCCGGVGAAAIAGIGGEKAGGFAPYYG

Sequence of MMP-8 (collagenase 2, neutrophil collagenase) (chain, as listed by the source): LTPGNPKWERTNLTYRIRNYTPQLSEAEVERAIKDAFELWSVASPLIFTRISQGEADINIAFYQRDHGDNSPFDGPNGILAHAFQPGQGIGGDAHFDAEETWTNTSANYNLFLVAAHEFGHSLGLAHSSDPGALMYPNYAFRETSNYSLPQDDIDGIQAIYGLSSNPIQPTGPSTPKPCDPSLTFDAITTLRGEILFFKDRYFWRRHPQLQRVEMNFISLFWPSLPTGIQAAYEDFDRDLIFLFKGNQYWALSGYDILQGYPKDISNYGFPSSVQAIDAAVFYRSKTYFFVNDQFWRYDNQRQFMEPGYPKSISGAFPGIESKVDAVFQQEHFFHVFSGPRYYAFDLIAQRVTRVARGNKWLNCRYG
Sequence of Synthetic human type I collagen (chain, as listed by the source, chain 1 of 2): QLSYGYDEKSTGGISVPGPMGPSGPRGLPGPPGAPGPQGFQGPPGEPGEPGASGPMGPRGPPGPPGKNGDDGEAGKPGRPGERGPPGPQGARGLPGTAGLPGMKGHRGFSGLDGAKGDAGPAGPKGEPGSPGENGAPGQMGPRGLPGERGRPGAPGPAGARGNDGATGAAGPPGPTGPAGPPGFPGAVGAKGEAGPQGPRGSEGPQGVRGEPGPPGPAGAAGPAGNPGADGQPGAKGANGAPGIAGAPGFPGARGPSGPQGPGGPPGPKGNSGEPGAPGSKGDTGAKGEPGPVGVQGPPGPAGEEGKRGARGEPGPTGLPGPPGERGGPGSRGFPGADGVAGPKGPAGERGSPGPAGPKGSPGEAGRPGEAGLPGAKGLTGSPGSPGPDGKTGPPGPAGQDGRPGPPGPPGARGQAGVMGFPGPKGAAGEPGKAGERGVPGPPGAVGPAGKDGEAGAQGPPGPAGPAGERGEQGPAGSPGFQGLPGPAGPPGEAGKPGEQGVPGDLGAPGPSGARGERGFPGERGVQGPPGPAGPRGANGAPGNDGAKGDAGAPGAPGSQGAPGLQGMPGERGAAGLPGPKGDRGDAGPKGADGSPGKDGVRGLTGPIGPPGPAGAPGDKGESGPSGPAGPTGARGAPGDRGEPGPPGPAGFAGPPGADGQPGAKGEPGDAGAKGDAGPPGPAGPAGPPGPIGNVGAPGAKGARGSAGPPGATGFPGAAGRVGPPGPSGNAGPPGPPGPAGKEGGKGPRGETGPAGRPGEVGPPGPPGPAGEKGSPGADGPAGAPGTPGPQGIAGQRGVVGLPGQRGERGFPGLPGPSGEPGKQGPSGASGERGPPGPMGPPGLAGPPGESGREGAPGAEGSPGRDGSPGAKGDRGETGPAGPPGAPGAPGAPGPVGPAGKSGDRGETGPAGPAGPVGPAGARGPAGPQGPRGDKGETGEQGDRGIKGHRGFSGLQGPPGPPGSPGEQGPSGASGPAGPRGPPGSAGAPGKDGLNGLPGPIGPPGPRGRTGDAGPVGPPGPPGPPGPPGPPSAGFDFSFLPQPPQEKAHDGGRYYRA
Sequence of Synthetic human type I collagen (chain, as listed by the source, chain 2 of 2): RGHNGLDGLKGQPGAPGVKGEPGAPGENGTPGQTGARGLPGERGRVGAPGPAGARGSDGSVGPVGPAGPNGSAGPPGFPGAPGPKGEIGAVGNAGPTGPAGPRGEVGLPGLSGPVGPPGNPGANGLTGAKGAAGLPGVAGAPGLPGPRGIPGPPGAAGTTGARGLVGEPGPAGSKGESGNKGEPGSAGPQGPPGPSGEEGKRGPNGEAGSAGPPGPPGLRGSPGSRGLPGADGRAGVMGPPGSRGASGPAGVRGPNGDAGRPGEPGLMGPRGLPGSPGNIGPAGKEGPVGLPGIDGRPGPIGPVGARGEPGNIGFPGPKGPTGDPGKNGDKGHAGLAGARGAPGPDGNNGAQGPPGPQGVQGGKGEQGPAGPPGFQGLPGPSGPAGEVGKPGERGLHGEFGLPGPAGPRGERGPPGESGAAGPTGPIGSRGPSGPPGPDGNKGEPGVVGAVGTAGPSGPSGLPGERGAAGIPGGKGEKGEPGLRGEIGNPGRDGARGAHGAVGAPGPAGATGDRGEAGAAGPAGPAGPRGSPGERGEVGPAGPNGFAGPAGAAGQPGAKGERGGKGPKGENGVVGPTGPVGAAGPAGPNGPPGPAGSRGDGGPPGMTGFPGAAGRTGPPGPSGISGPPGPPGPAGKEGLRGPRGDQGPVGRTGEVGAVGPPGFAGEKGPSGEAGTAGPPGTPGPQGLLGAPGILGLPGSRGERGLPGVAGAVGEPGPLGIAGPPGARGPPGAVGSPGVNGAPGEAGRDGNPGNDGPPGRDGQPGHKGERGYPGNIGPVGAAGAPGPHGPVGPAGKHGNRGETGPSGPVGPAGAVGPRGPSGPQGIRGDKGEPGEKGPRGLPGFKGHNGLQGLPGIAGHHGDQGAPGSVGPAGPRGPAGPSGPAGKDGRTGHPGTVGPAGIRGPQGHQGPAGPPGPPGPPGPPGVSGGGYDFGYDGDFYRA

## MMP-8 (collagenase 2, neutrophil collagenase)
[1]
  cleavage of collagen (SDS-PAGE after 1, 2 and 7 days at 37 C): both synthetic human type I and type III collagen were cleaved by MMP-1 (FIG. 1A) and MMP-8 (FIG. 1B)
[2]
  cleavage of collagen (SDS-PAGE after 1, 2 and 7 days at 37 C): both synthetic human type I and type III collagen were cleaved by MMP-1 (FIG. 1A) and MMP-8 (FIG. 1B)
  extent of degradation of collagen (SDS-PAGE): Synthetic human type III collagen was degraded by MMP-1 to a greater extent than by MMP-8
